Results taken from patent US20050187147A1.
Square brackets hold non-standard residues; d marks the D form. Primed or numbered codes have the meaning given here. * marks the point of attachment. 10Ca = carbamate linkage conjugating the peptide-PEG to paclitaxel at C10; PEG(13) = PEG13 linker; Piv = CC(C)(C)C(=O)*; PXL = paclitaxel

Molecular target: Human Akt kinase (Upstate #14-276) (human), P31749
Assay: cell-based or functional assay

Sequence of Human Akt kinase (Upstate #14-276) (human), P31749 (P31749 whole entry): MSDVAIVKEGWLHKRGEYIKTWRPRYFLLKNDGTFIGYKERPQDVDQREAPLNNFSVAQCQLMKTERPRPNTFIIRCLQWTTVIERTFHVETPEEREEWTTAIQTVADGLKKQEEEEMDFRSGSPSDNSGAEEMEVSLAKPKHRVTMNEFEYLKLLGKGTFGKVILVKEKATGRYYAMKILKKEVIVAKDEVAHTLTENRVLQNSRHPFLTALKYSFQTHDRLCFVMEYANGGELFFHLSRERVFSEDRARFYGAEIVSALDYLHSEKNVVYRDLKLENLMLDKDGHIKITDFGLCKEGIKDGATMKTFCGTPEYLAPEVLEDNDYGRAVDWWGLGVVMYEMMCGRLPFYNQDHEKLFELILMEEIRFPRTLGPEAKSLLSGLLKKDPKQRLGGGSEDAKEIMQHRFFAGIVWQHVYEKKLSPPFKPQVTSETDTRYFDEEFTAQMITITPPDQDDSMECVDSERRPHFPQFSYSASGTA

Ave. Akt Kinase Act. (% of parent peptide activity): 0
Binder: Piv-GRPRTS[dS]FAEG-{PEG(13)-10Ca-PXL} [Pv-GRPRTSsFAEG-PEG(13)-10Ca-PXL]
